Target: T1, H4R-Nluc (human, UniProt Q9H3N8-1 1-390)
T1 construct: histamine H4 receptor (H4R), human; Nluc fused in frame to the intracellular C-terminal tail; also called H4R-Nluc/pcDEF3; human H4R-Nluc fusion; source: HEK293T, transiently transfected, in living cells; not shown: NanoLuc (Nluc), C-terminal, kept
Experiment: FRET or BRET; saturation BRET in living HEK293T cells; constant H4R-Nluc donor (12.5 ng) with 0-500 ng mVenus-tagged TSPAN4 acceptor plasmid; HBSS, 37 °C; vehicle or 10 µM histamine; one site-specific binding fit
Details: partners not purified

T1 sequence (Q9H3N8 whole entry, the tested form may be a part): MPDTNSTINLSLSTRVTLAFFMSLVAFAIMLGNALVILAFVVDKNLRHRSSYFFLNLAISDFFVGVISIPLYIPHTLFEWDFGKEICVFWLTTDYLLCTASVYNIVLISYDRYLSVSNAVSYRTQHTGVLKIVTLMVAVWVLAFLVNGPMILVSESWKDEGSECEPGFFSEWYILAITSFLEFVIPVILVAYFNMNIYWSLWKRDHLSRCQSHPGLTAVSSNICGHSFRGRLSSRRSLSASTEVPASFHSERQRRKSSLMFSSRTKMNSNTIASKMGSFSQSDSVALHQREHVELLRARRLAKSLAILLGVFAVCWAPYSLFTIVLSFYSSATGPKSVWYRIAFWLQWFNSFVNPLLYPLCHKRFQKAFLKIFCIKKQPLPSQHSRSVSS

B1: mVenus-TSPAN4 (natural protein, human, UniProt O14817 2-238, looked up)
chain: ARACLQAVKYLMFAFNLLFWLGGCGVLGVGIWLAATQGSFATLSSSFPSLSAANLLIITGAFVMAIGFVGCLGAIKENKCLLLTFFLLLLLVFLLEATIAILFFAYTDKIDRYAQQDLKKGLHLYGTQGNVGLTNAWSIIQTDFRCCGVSNYTDWFEVYNATRVPDSCCLEFSESCGLHAPGTWWKAPCYETVKVWLQENLLAVGIFGLCTALVQILGLTFAMTMYCQVVKADTYCA
notes: tetraspanin 4 (TSPAN4), human; start codon replaced by SpeI-NotI sites coding for a TSAAA linker, mVenus at the intracellular N-terminus; also called mVenus-TSPAN4/pcDNA3.1; source: HEK293T, transiently transfected, in living cells (BRET) and in lysate (co-IP); not shown: mVenus (with TSAAA linker), N-terminal, kept
For B1, the “BRET50 (vehicle)” value was 0.79 mVenus/Nluc ratio and the “BRET50 (with 10 µM histamine)” value was 0.92 mVenus/Nluc ratio.

B2: TSPAN4-mVenus (natural protein, human, UniProt O14817 1-238, looked up)
chain: MARACLQAVKYLMFAFNLLFWLGGCGVLGVGIWLAATQGSFATLSSSFPSLSAANLLIITGAFVMAIGFVGCLGAIKENKCLLLTFFLLLLLVFLLEATIAILFFAYTDKIDRYAQQDLKKGLHLYGTQGNVGLTNAWSIIQTDFRCCGVSNYTDWFEVYNATRVPDSCCLEFSESCGLHAPGTWWKAPCYETVKVWLQENLLAVGIFGLCTALVQILGLTFAMTMYCQVVKADTYCA
notes: tetraspanin 4 (TSPAN4), human; stop codon replaced by SpeI-NotI sites coding for a TSAAA linker, mVenus at the intracellular C-terminus; also called TSPAN4-mVenus/pcDEF3; source: HEK293T, transiently transfected, in living cells; not shown: mVenus (with TSAAA linker), C-terminal, kept
For B2, the “BRET50 (vehicle)” value was 0.45 mVenus/Nluc ratio and the “BRET50 (with 10 µM histamine)” value was 0.68 mVenus/Nluc ratio.
